# The Human Domainome abundance scans (Beltran et al. 2025)
# ± gives the uncertainty stated by the source.
# B1: Zinc finger homeobox protein 3, residues 2643 to 2698; numbered along this chain, Q15911 (parent)
# chain: RLRTTITPEQLEILYQKYLLDSNPTRKMLDHIAHEVGLKKRVVQVWFQNTRARERK
# Variants of: B1
# Assay: abundance fitness (aPCA) (normalised: wild type 0, dead -1); higher = more abundant; growth selection in yeast, the domain comes from the species named
# Details: Homo sapiens
row,Variant,abundance fitness
1,RLRTTITPEQLEILYQKYLLDSNPTRKMLDHIAHEVGLKKRVVQVWFQNPRARERK [T50P],-0.6 ± 0.12
2,RLRTTITPEQLEILYQKYLLDSNPTRKMLDHIAHEVGLKKRVVQVWFQNHRARERK [T50H],-0.11 ± 0.17
3,RLRTTITPEQLEILYQKYLLDSNPTRKMLDHIAHEVGLKKRVVQVWFQNGRARERK [T50G],-0.549 ± 0.073
4,RLRTTITPEQLEILYQKYLLDSNPTRKMLDHIAHEVGLKKRVVQVWFQNSRARERK [T50S],-0.202 ± 0.094
5,RLRTTITPEQLEILYQKYLLDSNPTRKMLDHIAHEVGLKKRVVQVWFQNRRARERK [T50R],-0.037 ± 0.072
6,RLRTTITPEQLEILYQKYLLDSNPTRKMLDHIAHEVGLKKRVVQVWFQNLRARERK [T50L],-0.177 ± 0.09
7,RLRTTITPEQLEILYQKYLLDSNPTRKMLDHIAHEVGLKKRVVQVWFQNDRARERK [T50D],-0.731 ± 0.15
8,RLRTTITPEQLEILYQKYLLDSNPTRKMLDHIAHEVGLKKRVVQVWFQNERARERK [T50E],0.342 ± 0.11
9,RLRTTITPEQLEILYQKYLLDSNPTRKMLDHIAHEVGLKKRVVQVWFQNCRARERK [T50C],-0.078 ± 0.11
10,RLRTTITPEQLEILYQKYLLDSNPTRKMLDHIAHEVGLKKRVVQVWFQNQRARERK [T50Q],0.243 ± 0.12
11,RLRTTITPEQLEILYQKYLLDSNPTRKMLDHIAHEVGLKKRVVQVWFQNWRARERK [T50W],-0.156 ± 0.091
12,RLRTTITPEQLEILYQKYLLDSNPTRKMLDHIAHEVGLKKRVVQVWFQNNRARERK [T50N],-0.572 ± 0.36
13,RLRTTITPEQLEILYQKYLLDSNPTRKMLDHIAHEVGLKKRVVQVWFQNARARERK [T50A],0.056 ± 0.086
14,RLRTTITPEQLEILYQKYLLDSNPTRKMLDHIAHEVGLKKRVVQVWFQNYRARERK [T50Y],-0.048 ± 0.15
15,RLRTTITPEQLEILYQKYLLDSNPTRKMLDHIAHEVGLKKRVVQVWFQNMRARERK [T50M],0.092 ± 0.13
16,RLRTTITPEQLEILYQKYLLDSNPTRKMLDHIAHEVGLKKRVVQVWFQNIRARERK [T50I],-0.247 ± 0.11
17,RLRTTITPEQLEILYQKYLLDSNPTRKMLDHIAHEVGLKKRVVQVWFQNKRARERK [T50K],-0.091 ± 0.13
18,RLRTTITPEQLEILYQKYLLDSNPTRKMLDHIAHEVGLKKRVVQVWFQNFRARERK [T50F],-0.322 ± 0.19
19,RLRTTITPEQLEILYQKYLLDSNPTRKMLDHIAHEVGLKKRVVQVWFQNTRARECK [R55C],0.263 ± 0.099
20,RLRTTITPEQLEILYQKYLLDSNPTRKMLDHIAHEVGLKKRVVQVWFQNTRAREAK [R55A],0.239 ± 0.086
21,RLRTTITPEQLEILYQKYLLDSNPTRKMLDHIAHEVGLKKRVVQVWFQTTRARERK [N49T],0.04 ± 0.12
22,RLRTTITPEQLEILYQKYLLDSNPTRKMLDHIAHEVGLKKRVVQVWFQWTRARERK [N49W],-0.68 ± 0.12
23,RLRTTITPEQLEILYQKYLLDSNPTRKMLDHIAHEVGLKKRVVQVWFQSTRARERK [N49S],-0.029 ± 0.089
24,RLRTTITPEQLEILYQKYLLDSNPTRKMLDHIAHEVGLKKRVVQVWFQRTRARERK [N49R],-0.267 ± 0.082

row,Variant,abundance fitness
1,RLRTTITPEQLEILYQKYLLDSNPTRKMLDHIAHEVGLKKRVVQVWFQPTRARERK [N49P],-0.778 ± 0.17
2,RLRTTITPEQLEILYQKYLLDSNPTRKMLDHIAHEVGLKKRVVQVWFQQTRARERK [N49Q],-0.168 ± 0.14
3,RLRTTITPEQLEILYQKYLLDSNPTRKMLDHIAHEVGLKKRVVQVWFQVTRARERK [N49V],-0.229 ± 0.093
4,RLRTTITPEQLEILYQKYLLDSNPTRKMLDHIAHEVGLKKRVVQVWFQNTEARERK [R51E],-0.163 ± 0.1
5,RLRTTITPEQLEILYQKYLLDSNPTRKMLDHIAHEVGLKKRVVQVWFQNTWARERK [R51W],-0.135 ± 0.11
6,RLRTTITPEQLEILYQKYLLDSNPTRKMLDHIAHEVGLKKRVVQVWFQNTSARERK [R51S],0.024 ± 0.093
7,RLRTTITPEQLEILYQKYLLDSNPTRKMLDHIAHEVGLKKRVVQVWFQNTQARERK [R51Q],0.229 ± 0.12
8,RLRTTITPEQLEILYQKYLLDSNPTRKMLDHIAHEVGLKKRVVQVWFQNTIARERK [R51I],-0.286 ± 0.16
9,RLRTTITPEQLEILYQKYLLDSNPTRKMLDHIAHEVGLKKRVVQVWFQNTPARERK [R51P],-0.812 ± 0.14
10,RLRTTITPEQLEILYQKYLLDSNPTRKMLDHIAHEVGLKKRVVQVWFQNTCARERK [R51C],-0.044 ± 0.11
11,RLRTTITPEQLEILYQKYLLDSNPTRKMLDHIAHEVGLKKRVVQVWFQNTYARERK [R51Y],0.073 ± 0.17
12,RLRTTITPEQLEILYQKYLLDSNPTRKMLDHIAHEVGLKKRVVQVWFQNTLARERK [R51L],0.056 ± 0.1
13,RLRTTITPEQLEILYQKYLLDSNPTRKMLDHIAHEVGLKKRVVQVWFQNTAARERK [R51A],0.13 ± 0.076
14,RLRTTITPEQLEILYQKYLLDSNPTRKMLDHIAHEVGLKKRVVQVWFQNTVARERK [R51V],-0.155 ± 0.076
15,RLRTTITPEQLEILYQKYLLDSNPTRKMLDHIAHEVGLKKRVVQVWFQNTDARERK [R51D],-0.474 ± 0.14
16,RLRTTITPEQLEILYQKYLLDSNPTRKMLDHIAHEVGLKKRVVQVWFQNTHARERK [R51H],0.164 ± 0.19
17,RLRTTITPEQLEILYQKYLLDSNPTRKMLDHIAHEVGLKKRVVQVWFQNTKARERK [R51K],0.112 ± 0.11
18,RLRTTITPEQLEILYQKYLLDSNPTRKMLDHIAHEVGLKKRVVQVWFQNTMARERK [R51M],0.098 ± 0.11
19,RLRTTITPEQLEILYQKYLLDSNPTRKMLDHIAHEVGLKKRVVQVWFQNTTARERK [R51T],-0.305 ± 0.16
20,RLRTTITPEQLEILYQKYLLDSNPTRKMLDHIAHEVGLKKRVVQVWFQNTRARSRK [E54S],-0.497 ± 0.074
21,RLRTTITPEQLEILYQKYLLDSNPTRKMLDHIAHEVGLKKRVVQVWFQNTRARGRK [E54G],-0.305 ± 0.088
22,RLRTTITPEQLEILYQKYLLDSNPTRKMLDHIAHEVGLKKRVVQVWFQNTRARLRK [E54L],-0.2 ± 0.069
23,RLRTTITPEQLEILYQKYLLDSNPTRKMLDHIAHEVGLKKRVVQVWFQNTRARFRK [E54F],-0.167 ± 0.088
